{
  "source": "paper PMC4640650",
  "about": "(Science Advances, 2015)",
  "biological_target": "the molecule itself",
  "assay": "crystal structure",
  "data": [
    {"protein": "ATP synthase c-subunit of Mycobacterium phlei (Fo rotor ring, c9 ring) (natural protein, UniProt A0A5N5V239 1-86, looked up) MELDPNALITAGALIGGGLIMGGGAIGAGIGDGIAGNALISGIARQPEAQGRLFTPFFITVGLVEAAYFINLAFMALFVFATPGLQ", "values": [
      {"measurement": "stoichiometry N", "value": 9}
    ]}
  ]
}
